Data from US20230365674 (published 2023).
Like-named read-outs stand apart in the source and are kept apart here.

Legend:
Assay in all cases: SPR
[1] = biological target: T1, human NPR1 (human)
T1 chain: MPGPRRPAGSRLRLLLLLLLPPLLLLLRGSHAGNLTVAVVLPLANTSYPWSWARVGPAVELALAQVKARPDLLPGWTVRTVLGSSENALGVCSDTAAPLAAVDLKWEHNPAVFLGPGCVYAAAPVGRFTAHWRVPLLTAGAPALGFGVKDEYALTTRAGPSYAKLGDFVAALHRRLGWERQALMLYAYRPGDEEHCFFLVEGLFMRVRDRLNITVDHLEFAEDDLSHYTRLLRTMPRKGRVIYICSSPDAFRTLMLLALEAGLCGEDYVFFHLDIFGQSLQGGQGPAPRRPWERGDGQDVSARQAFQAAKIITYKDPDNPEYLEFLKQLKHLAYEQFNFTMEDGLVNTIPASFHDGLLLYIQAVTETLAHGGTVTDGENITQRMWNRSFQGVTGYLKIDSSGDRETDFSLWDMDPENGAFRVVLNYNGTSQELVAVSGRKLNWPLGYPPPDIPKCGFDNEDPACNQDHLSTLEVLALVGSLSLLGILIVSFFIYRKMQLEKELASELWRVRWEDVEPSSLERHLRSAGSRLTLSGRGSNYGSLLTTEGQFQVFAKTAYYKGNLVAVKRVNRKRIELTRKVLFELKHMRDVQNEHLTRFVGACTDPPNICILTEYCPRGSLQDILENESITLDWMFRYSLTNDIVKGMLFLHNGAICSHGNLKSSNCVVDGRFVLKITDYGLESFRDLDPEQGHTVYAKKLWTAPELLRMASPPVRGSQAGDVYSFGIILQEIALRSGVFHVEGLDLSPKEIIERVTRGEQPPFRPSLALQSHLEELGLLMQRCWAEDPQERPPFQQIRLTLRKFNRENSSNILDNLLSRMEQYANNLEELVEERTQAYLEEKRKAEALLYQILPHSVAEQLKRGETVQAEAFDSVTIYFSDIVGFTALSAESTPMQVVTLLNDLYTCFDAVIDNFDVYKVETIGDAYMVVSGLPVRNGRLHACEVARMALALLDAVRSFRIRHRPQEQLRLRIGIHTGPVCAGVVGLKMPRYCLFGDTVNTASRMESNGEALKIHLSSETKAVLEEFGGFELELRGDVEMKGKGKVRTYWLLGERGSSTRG

[2] = biological target: T1, human NPR1
[3] = biological target: T2, human NPR1-ANP complex (human)
T2 chain 1: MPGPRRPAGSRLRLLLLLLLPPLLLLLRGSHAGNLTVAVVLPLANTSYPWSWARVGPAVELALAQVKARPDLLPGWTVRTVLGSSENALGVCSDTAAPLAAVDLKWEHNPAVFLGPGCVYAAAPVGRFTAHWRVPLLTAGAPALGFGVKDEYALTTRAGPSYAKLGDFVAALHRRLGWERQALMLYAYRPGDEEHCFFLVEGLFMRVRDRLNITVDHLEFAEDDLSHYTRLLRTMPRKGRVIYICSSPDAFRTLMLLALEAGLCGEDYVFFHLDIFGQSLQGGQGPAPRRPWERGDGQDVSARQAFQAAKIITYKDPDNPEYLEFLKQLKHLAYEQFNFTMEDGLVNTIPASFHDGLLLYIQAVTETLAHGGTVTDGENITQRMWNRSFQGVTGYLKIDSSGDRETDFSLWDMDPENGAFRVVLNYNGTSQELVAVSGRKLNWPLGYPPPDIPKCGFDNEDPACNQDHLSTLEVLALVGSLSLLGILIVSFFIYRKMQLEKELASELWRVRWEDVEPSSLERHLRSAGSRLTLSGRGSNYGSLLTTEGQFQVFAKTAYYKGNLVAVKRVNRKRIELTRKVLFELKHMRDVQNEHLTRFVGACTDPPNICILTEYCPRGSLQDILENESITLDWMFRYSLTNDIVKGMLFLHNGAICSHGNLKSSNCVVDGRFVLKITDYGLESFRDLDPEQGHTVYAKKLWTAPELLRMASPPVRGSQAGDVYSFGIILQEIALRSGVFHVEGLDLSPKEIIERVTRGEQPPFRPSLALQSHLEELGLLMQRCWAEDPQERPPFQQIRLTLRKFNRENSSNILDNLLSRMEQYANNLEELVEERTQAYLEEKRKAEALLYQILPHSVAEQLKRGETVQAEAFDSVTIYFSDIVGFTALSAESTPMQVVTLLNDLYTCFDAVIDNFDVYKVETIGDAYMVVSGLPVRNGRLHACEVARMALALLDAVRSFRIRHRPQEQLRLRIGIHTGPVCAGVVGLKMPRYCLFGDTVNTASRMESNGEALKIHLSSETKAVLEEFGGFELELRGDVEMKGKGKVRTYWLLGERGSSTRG
T2 chain 2: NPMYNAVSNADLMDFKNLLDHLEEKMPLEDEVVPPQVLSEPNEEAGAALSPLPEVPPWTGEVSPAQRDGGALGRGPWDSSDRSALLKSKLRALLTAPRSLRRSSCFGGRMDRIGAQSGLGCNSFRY

[4] = biological target: T2, human NPR1-ANP complex

B1: WW06 FabCys (antibody, V domains shown)
VH: QVQLVQSGAEVKKPGESLKISCKGSGYSFTSYWIAWVRQMPGKGLEWMGRIDPDNSYTRYSPSFQGQVTISADKSISTAYLQWSSLKASDTAMYYCARWLSPGYALGEQPAGMDHWGQGTLVTVSS
VL: DIVLTQPPSVSGAPGQRVTISCTGSSSNIGAGYAVHWYQQLPGTAPKLLIYSNNKRPSGVPDRFSGSKSGTSASLAITGLQAEDEADYYCQSYDLQKSSRVFGGGTKLTVL
A Kd [1] of 5.3 nM, a Kd [2] of 5.3 nM and a Kd [3] of 12 nM were found for B1 in this work. It also gave a Kd [4] of 12 nM.
